In paper PMC4190031 (Cell, 2014):
Square brackets hold non-standard residues; d marks the D form. Ends that are not written are not given here.

Molecular target: T1, MitTx β subunit (Texas coral snake, UniProt G9I930 31-149)
T1 sequence: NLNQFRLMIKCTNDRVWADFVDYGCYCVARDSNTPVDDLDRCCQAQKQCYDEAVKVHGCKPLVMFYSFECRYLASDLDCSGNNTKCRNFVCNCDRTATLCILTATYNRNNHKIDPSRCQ
Test: crystal structure

B1: MitTx α subunit (natural protein)
chain: [PCA]IRPAFCYEDPPFFQKCGAFVDSYYFNRSRITCVHFFYGQCDVNQNHFTTMSECNRVCHG
modifications: cysteine pairing not given here
  binding result: binds
